In patent publication US20190381150:

T1: Bovine ribonuclease B (ribonuclease B from bovine pancreas, Sigma-Aldrich), P61823
T1 chain: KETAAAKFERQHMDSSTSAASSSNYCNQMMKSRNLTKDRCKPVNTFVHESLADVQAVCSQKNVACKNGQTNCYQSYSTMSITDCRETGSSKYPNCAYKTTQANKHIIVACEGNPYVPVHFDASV

T2: bovine fetuin, P12763
T2 chain: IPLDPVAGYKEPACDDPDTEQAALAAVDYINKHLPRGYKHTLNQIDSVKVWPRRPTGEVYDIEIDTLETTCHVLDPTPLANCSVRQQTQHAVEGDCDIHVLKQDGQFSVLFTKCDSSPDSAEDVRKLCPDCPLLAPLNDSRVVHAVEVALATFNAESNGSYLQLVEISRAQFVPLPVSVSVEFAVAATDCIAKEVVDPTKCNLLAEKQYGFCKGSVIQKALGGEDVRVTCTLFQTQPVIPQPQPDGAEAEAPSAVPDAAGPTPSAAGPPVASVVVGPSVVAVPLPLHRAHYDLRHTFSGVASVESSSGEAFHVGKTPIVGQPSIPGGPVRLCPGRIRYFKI


What was measured:
[1] = biological target: Bovine lactoferrin (lactoferrin from bovine milk, Sigma), P24627
Sequence of Bovine lactoferrin (lactoferrin from bovine milk, Sigma), P24627 (P24627 20-708): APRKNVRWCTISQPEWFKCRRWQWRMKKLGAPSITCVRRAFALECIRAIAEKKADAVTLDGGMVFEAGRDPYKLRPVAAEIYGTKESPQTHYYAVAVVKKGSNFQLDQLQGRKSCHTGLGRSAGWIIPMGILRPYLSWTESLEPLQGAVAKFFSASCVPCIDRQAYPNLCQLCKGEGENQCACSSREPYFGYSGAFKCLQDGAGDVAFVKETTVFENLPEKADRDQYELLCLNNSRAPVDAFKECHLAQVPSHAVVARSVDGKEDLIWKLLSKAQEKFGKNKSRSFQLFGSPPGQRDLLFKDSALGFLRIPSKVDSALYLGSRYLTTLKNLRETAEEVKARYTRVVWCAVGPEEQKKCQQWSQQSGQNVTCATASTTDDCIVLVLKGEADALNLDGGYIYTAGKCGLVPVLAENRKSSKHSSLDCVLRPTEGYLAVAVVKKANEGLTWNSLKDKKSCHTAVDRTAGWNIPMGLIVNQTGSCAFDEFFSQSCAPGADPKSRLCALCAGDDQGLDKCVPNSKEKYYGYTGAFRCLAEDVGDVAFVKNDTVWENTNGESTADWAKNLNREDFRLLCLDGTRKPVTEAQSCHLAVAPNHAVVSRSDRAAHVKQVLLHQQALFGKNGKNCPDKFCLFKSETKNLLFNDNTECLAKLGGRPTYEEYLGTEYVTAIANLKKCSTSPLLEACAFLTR

[2] = biological target: Human lactoferrin (lactoferrin from human milk, Sigma), P02788
Sequence of Human lactoferrin (lactoferrin from human milk, Sigma), P02788 (P02788 20-710): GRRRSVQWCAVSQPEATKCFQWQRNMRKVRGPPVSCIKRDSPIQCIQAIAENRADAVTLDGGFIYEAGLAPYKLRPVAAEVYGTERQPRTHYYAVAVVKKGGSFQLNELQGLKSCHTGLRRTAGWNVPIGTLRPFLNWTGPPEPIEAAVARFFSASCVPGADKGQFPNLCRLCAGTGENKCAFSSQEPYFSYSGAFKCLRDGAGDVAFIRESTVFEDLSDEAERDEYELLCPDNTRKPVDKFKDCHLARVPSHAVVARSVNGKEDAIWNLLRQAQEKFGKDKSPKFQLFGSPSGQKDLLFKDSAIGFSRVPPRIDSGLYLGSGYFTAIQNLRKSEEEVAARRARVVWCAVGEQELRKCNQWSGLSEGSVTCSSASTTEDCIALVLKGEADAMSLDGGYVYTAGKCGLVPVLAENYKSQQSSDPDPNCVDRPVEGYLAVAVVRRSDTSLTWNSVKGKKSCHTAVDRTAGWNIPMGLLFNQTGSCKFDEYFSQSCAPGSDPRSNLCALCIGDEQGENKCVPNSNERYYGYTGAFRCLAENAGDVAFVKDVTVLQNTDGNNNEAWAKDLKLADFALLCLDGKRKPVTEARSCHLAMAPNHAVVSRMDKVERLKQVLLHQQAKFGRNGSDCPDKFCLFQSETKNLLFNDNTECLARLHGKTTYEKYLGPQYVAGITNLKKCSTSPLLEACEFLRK

[3] = biological target: T1, Bovine ribonuclease B (ribonuclease B …)
bovine fetuin, P12763 = biological target: T2, bovine fetuin, P12763

| Protein | deglycosylation, change in MW on SDS-PAGE after overnight incubation [1] | deglycosylation, SDS-PAGE after overnight incubation [2] | deglycosylation (cleavage of high mannose glycans) [1] | deglycosylation (cleavage of high mannose glycans) [3] | deglycosylation (cleavage of high mannose glycans) [2] | shift in molecular weight on SDS-PAGE of human milk after overnight incubation [2] | release of N-glycans (bovine fetuin, P12763) |
| --- | --- | --- | --- | --- | --- | --- | --- |
| EndoBI-2 (endo-β-N-acetylglucosaminidase from B. infantis SC142), recombinant, signal peptide and transmembrane domains omitted (protein) VANAQEGDSPVAASQEGNGNKHFMVYYRAWRDVTMKGVNTDLPDDNWISMYDIPYGIDVVNVFSYVPSGQEAAAQPFYDKLKSDYAPYLHARGVKLVRGLDYSGVMVDGFKTWIAQQGKNVDSATESDYDAYADHVIETYMTSVGLDGLDIDMETFPDAAQVAISDQVITALAKRIGPKSDNPEGTMFLYDTNGSYTAPFKNVSDCFDYVAYQQYGSDSNRTAKAAATYEQFIDSTKFVPGLTFPEEGDMNNRWNDATEPYLDSHFYDVASYSYDHNLGGMFVYALDRDGRTYSDDDLAHIKPSNLIWTKTAIAQSQGMSLENAKQAANHFLDRMSYTKDVPAETRQTVAAATNLYEVNKAVLGADWNDGYSNTYDPTLELSLASIDTTALTGAIAKADALLADGATDTDVRTTLTTARNAA | all of them were able to cleave bLF, as observed by discrete changes in MW on SDS-PAGE gels | EndoBI-1 and EndoBI-2 cleaved hLF |  |  |  |  |  |
| EndoBB (GH85 endo-β-N-acetylglucosaminidase, BLD_0197 from B. longum DJO10A), recombinant, signal peptide and transmembrane domain omitted (protein) CSGGTSATKYTITPENENEELVLGNRPEASYWFPEDLLKWNADKDPNLAYNVSTVPLAKRVDKADLKPVNDTQNTDTKVMAISIMNSSTSGNAPHGLNTANANTFSYWQYVDELVYWGGSSGEGIIVPPSPDVTDMGHTNGVPVLGTVFFPQNVSGGKVEWLDQTLAQKSDGSFPVADKLIEVATTYGFDGWFINQETEGENETSLGADYATKMQAFIAYLKKQAPDLRVVYYDSMTKDGSIDWQNALTDENSMYMTDGDHPIADEMFLNFWWTEDKLAGDDLLAASATKAKELGIDPYSLYAGIDVQADGYDTPVKWNLFAGKDGKTHTSLGLYCPSWAYWSAGNPTTFRKNESRLWVNDEGNPSVSTPYEDDEKWTGVSNYVAEQSAVTSLPFVTNFNNGSGYSFFREGKQISKMDWNNRSVSDIQPTYRWIVADEGGNKTKADYSDADAWYGGSSLKFSGKVAKDGKTMVKLYSASVKTGAKPTLSIAAKANVDTDLKAVLTFADGSVETVNGKKKVGNDWGVIDYDIAKLSNKTLTGIDFTYQSSEDKTGYELLLGNITLKDGSEETELGKVTEVKVDDSEFDDDALYAGARISWKTDGKAPAYEIYQINEDKSRSFLGVSNVENFYANALTRVGETNNTTFEIVPVDRYGTQGTSAKADMDWPDNSKPKAGATASRTLLNVGDEVTFTSASSKNTAEVAWSLPGSSKEHATGKSVTVTYDKEGVYDVEITAKNKSGEATATLKGQIVVSADVMDLVLLSQGAQVSADGFTNGNEKPEFAVDGDVKTKWCVTGPAPHELVVDLGAPKTVSQVDISHAQAGGEDASMNTQEYAIEVSEDGTEYTQVALVKGNTEGATSNAFAPVNARYVKLVVNKPTQGSDTAARIYEMQVRGADGAIL | all of them were able to cleave bLF, as observed by discrete changes in MW on SDS-PAGE gels |  | cleaving RNAseB and bLF, but not hLF | cleaving RNAseB and bLF, but not hLF | cleaving RNAseB and bLF, but not hLF |  |  |
| EndoBI-1 (endo-β-N-acetylglucosaminidase from B. infantis ATCC 15697, Blon_2468), recombinant, signal peptide and transmembrane domains omitted (protein) NADAVSPTQETIQSTGRHFMVYYRAWRDVTMKGVNTDLPDDNWISMYDIPYGVDVVNIFSYVPSGQEEQAQPFYDKLKSDYAPYLHSRGIKLVRGIDYTGVAVNGFRTFMKEQNKTESEATEADYDAYAKQVIDKYMISVGLDGLDIDMEAHPNDADVKISDNVIRALSKHIGPKSAKPDTTMFLYDTNGSYLNPFKNVAECFDYVAYQQYGSSSDRTARAAADYQPYIGNEFVPGLTFPEEGDMNNRWYDATEPYEESHFYQVASYVREHNLGGMFVYALDRDGRNYDEDLRRIVPSNLLWTKTAIAESEGMALDTAKTAANHYLDRMSLRQVIDDNAASADKARDMVGKAANLYETNKAVLGGDYGEGFSNTYDPTLEAGLLGIDISVLQQQIDKSSEIIGADTAESDAKTALRMARDAAIDGLTGKIYTADQVSAWSQALKAALDATVPVPTPDSTDQNGNRDKVTNHKVQGQPKQLSAT | all of them were able to cleave bLF, as observed by discrete changes in MW on SDS-PAGE gels | EndoBI-1 and EndoBI-2 cleaved hLF |  |  |  | produced a shift in the molecular weight of primarily lactoferrin | releasing N-glycans from human IgA, IgG, RNase B and bovine fetuin |
